According to publication PMC1802567:
Read-outs that look alike come from different tables or passages of the source.

What was measured:
p73α = biological target: T1, p73α (UniProt O15350 1-636); assay: EMSA
T1 sequence: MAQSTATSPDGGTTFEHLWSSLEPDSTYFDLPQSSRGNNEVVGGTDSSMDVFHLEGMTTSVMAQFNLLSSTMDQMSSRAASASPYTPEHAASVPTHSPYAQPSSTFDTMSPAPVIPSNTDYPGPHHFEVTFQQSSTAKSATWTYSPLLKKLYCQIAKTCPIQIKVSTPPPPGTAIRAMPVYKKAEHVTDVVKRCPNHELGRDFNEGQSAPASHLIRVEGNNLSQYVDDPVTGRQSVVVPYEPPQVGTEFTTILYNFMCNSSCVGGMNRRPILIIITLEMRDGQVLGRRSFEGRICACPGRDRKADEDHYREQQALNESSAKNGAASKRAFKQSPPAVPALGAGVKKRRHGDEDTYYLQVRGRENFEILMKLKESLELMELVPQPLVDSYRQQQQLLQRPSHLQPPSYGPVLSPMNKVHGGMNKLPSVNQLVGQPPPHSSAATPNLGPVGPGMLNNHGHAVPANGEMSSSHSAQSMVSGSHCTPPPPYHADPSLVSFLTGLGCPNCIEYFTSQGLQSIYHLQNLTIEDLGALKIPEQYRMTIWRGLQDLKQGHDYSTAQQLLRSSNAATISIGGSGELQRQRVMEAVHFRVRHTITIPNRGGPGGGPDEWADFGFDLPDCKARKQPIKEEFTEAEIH

p53 [1] = biological target: T2, p53 (UniProt P04637 1-393); assay: EMSA
T2 sequence (P04637 whole entry): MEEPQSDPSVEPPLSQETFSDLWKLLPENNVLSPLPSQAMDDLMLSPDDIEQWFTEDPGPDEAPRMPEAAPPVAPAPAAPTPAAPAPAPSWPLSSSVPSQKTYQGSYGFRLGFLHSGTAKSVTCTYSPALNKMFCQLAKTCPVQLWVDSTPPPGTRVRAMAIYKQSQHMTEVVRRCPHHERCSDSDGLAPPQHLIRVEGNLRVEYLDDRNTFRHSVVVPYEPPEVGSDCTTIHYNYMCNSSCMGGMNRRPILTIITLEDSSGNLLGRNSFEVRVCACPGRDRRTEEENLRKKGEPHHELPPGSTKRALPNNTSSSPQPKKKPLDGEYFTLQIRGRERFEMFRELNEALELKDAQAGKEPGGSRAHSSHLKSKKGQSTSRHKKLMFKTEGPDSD

p73β [2] = biological target: T3, p73β (UniProt O15350-2 1-499); assay: EMSA
T3 sequence: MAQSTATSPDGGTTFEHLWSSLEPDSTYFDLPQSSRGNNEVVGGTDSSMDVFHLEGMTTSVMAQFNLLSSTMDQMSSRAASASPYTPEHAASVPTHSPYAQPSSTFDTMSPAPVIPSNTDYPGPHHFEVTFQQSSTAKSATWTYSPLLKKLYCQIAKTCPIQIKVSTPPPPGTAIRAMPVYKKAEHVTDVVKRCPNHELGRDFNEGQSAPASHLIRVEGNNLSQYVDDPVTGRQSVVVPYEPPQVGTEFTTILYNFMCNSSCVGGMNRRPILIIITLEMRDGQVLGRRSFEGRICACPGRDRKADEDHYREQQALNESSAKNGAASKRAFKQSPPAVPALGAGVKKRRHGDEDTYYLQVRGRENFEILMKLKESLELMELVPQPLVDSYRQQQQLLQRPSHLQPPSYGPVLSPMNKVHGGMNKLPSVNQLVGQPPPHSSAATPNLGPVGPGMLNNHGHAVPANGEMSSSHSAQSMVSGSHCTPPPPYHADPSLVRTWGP

p73β(C262S) = biological target: T4, p73β(C262S) (UniProt O15350-2 1-499, C262S); assay: DNA immunobinding assay
T4 sequence: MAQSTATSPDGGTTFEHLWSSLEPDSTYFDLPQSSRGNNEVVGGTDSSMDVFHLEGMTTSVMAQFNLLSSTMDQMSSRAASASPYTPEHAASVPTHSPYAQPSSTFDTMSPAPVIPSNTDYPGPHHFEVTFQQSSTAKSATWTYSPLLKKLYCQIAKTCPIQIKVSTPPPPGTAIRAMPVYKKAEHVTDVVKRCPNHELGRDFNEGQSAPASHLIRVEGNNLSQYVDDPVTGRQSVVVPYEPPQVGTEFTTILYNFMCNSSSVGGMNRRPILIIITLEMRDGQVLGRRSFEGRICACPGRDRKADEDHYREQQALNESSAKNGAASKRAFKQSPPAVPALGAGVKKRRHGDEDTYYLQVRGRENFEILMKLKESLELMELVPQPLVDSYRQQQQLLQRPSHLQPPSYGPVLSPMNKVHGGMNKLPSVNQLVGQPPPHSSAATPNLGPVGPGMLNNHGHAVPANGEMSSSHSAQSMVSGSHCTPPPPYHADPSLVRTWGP

ΔNp63β = biological target: T5, ΔNp63β (UniProt Q9H3D4-4 1-461); assay: EMSA
T5 sequence: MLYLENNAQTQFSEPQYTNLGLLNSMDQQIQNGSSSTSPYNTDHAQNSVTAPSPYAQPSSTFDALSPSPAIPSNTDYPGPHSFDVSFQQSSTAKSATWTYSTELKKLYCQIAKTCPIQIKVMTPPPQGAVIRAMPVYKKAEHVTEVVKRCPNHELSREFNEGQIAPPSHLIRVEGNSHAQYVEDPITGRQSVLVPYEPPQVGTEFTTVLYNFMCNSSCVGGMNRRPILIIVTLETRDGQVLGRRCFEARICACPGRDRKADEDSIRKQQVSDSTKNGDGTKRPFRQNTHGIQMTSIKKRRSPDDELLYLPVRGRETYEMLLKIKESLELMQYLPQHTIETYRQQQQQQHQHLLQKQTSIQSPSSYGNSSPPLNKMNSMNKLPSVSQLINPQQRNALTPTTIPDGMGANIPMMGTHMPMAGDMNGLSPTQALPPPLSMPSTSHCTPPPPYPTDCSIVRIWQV

p73β [3] = biological target: T3, p73β; assay: EMSA; remark: listed apart in the source
p73β [4] = biological target: T3, p73β; assay: EMSA; remark: listed apart in the source
p53 [5] = biological target: T2, p53; assay: EMSA; remark: listed apart in the source
p73β [6] = biological target: T3, p73β; assay: EMSA; remark: listed apart in the source

B1: p21 5' site (dsDNA)
DNA 1: AGCTAGTAGAGCGAACATGTCCCAACATGTTGGCGTGCTGCAGC
DNA 2: GCTGCAGCACGCCAACATGTTGGGACATGTTCGCTCTACTAGCT
binding result (p73α): binds
binding result (p53 [1]): binds
binding result (p73β [2]): binds
binding signal (p73β(C262S)): 1.5 fold over background
binding result (ΔNp63β): binds

B2: PIG3 (dsDNA)
DNA 1: AGCTAGTAGAGCCAGCTTGCCCACCCATGCTCGCGTGCTGCAGC
DNA 2: GCTGCAGCACGCGAGCATGGGTGGGCAAGCTGGCTCTACTAGCT
binding result (p53 [1]): binds
binding result (p73β [3]): binds

B3: PUMA (dsDNA)
DNA 1: AGCTAGTAGAGCCTGCAAGTCCTGACTTGTCCGCGTGCTGCAGC
DNA 2: GCTGCAGCACGCGGACAAGTCAGGACTTGCAGGCTCTACTAGCT
binding result (p73β [4]): binds

B4: PPC (dsDNA)
DNA 1: AGCTAGTAGAGCTGGCATGTCCCGACTTGTTAGCGTGCTGCAGC
DNA 2: GCTGCAGCACGCTAACAAGTCGGGACATGCCAGCTCTACTAGCT
binding result (p53 [5]): binds
binding result (p73β [6]): binds
